First the molecules themselves.
B1: Relaxin-3 (Homo sapiens), Q8WXF3 (parent)
chain: MARYMLLLLLAVWVLTGELWPGAEARAAPYGVRLCGREFIRAVIFTCGGSRWRRSDILAHEAMGDTFPDADADEDSLAGELDEAMGSSEWLALTKSPQAFYRGRPSWQGTPGVLRGSRDVLAGLSSSCCKWGCSKSEISSLC

In the first assay the parent is B1. Conditions: with rl3r2_human RXFP4, Q8TDU9.
Sequence of rl3r2_human RXFP4, Q8TDU9 (Q8TDU9 whole entry): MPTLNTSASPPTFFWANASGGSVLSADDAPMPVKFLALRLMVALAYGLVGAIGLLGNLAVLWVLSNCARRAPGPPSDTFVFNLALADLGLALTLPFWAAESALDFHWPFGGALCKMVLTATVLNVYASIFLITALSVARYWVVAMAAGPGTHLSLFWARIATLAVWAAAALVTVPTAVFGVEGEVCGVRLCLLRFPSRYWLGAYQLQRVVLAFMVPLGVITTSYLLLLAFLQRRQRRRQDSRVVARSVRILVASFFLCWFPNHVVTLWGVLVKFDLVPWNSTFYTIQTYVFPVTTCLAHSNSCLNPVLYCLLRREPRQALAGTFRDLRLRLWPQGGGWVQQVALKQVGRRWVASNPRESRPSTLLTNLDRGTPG
In the case of MARYMLLLLLAVWVLTGELWPGAEARAAPYGVRLCGEEFIRAVIFTCGGSRWRRSDILAHEAMGDTFPDADADEDSLAGELDEAMGSSEWLALTKSPQAFYRGRPSWQGTPGVLRGSRDVLAGLSSSCCKWGCSKSEISSLC, the “effect of a mutation on the interaction” value is reported as “decreasing interaction”.

Variants of B1 are the subject of a further assay. Conditions: with rl3r2_human RXFP4, Q8TDU9. This is another data set of the same source.
With MARYMLLLLLAVWVLTGELWPGAEARAAPYGVRLCGEEFIRAVIFTCGGSRWRRSDILAHEAMGDTFPDADADEDSLAGELDEAMGSSEWLALTKSPQAFYRGRPSWQGTPGVLRGSRDVLAGLSSSCCKWGCSKSEISSLC, the “effect of a mutation on the interaction” value is “increasing interaction”.

In another assay the parent is B1. Conditions: with rl3r2_human RXFP4, Q8TDU9. The source holds these as a separate data set.
MARYMLLLLLAVWVLTGELWPGAEARAAPYGVRLCGREFIRAVIFTCGGSEWRRSDILAHEAMGDTFPDADADEDSLAGELDEAMGSSEWLALTKSPQAFYRGRPSWQGTPGVLRGSRDVLAGLSSSCCKWGCSKSEISSLC: the “effect of a mutation on the interaction” value is on record as “decreasing interaction”.

Variants of B1 are the subject of another assay. The note with it: with rl3r2_human RXFP4, Q8TDU9. The source holds these as a separate data set.
In the case of MARYMLLLLLAVWVLTGELWPGAEARAAPYGVRLCGREFIRAVIFTCGGSEWRRSDILAHEAMGDTFPDADADEDSLAGELDEAMGSSEWLALTKSPQAFYRGRPSWQGTPGVLRGSRDVLAGLSSSCCKWGCSKSEISSLC, the “effect of a mutation on the interaction” value was “increasing interaction”.

Variants of B1 are the subject of the next assay. Conditions: with rl3r2_human RXFP4, Q8TDU9. This is another data set of the same source.
As for MARYMLLLLLAVWVLTGELWPGAEARAAPYGVRLCGREFIEAVIFTCGGSRWRRSDILAHEAMGDTFPDADADEDSLAGELDEAMGSSEWLALTKSPQAFYRGRPSWQGTPGVLRGSRDVLAGLSSSCCKWGCSKSEISSLC, the “effect of a mutation on the interaction” value is given as “decreasing interaction”.

In another assay the parent is B1. The note with it: with rl3r2_human RXFP4, Q8TDU9. The source holds these as a separate data set.
In the case of MARYMLLLLLAVWVLTGELWPGAEARAAPYGVRLCGREFIEAVIFTCGGSRWRRSDILAHEAMGDTFPDADADEDSLAGELDEAMGSSEWLALTKSPQAFYRGRPSWQGTPGVLRGSRDVLAGLSSSCCKWGCSKSEISSLC, the “effect of a mutation on the interaction” value is recorded as “increasing interaction”.

The record behind these values is IntAct's records for PubMed 24802387.
